Publication PMC12462935, “TRIM21‐Mediated K11‐Linked Ubiquitination of ID1 Suppresses Tumorigenesis and Promotes Cuproptosis in Esophageal Squamous Cell Carcinoma” (Advanced Science, 2025)

Biological target: T1, TRIM21-His protein (UniProt P19474 1-475)
T1 construct: TRIM21-His protein, Sino Biological 18010-H07B; also called recombinant TRIM21; source: bought: Sino Biological (18010-H07B)
Test: pull-down; TRIM21-His incubated with GST-ID1 or GST at a 3:1 molar ratio in lysis buffer; captured with anti-GST antibody at 4 °C overnight, then Protein A/G beads 4 h; immunoblot
Details: both partners purified

B1: GST-ID1 (natural protein, UniProt P41134 1-155, looked up)
chain: MKVASGSTATAAAGPSCALKAGKTASGAGEVVRCLSEQSVAISRCAGGAGARLPALLDEQQVNVLLYDMNGCYSRLKELVPTLPQNRKVSKVEILQHVIDYIRDLQLELNSESEVGTPGGRGLPVRAPLSTLNGEISALTAEAACVPADDRILCR
notes: also called recombinant ID1; source: cloned into pGEX-6p-2 with a GST tag and purified
binding result: binds
